In patent publication US20220296727A1, “Immunoconjugate” (DendroCyte BioTech Pty Ltd, priority 2019, published 2022):
Entries after “also recorded” stand apart in the source; their conditions may differ.

Columns and labels:
[1] = tested on: CD300f- lymphoma cell line Mino; test: Bystander killing assay; assay type: cell-based
Protocol: (§1) Kinetic analysis was performed as above.
AML surface targets, including CD300f, can be heterogeneously expressed within AML cases and we considered bystander killing advantageous for an effective ADC. To determine whether DCR-2PBD effects cells not expressing CD300f, we investigated bystander killing by comparing the viability of the CD300f− lymphoma cell line Mino cultured on its own, with Mino cultured mixed with HL-60 in the presence of DCR-2-PBD in mixtures of 50% HL-60/50% Mino, and 25% HL-60/75% Mino. Cells were incubated for 96 hours with various concentrations of DCR-2PBD (FIG. 11). […] The reduction in the Mino cells when combined with HL-60 confirm the ability of DCR-2-PBD to generate bystander killing.

HL-60 cells = test: HL-60 leukemic xenograft model in NSG mice; assay type: in vivo, mouse
Protocol: For the HL-60 leukemic model, NSG mice were irradiated with 200cGy 24 hours prior to intravenous administration of 5×10^6 HL-60 cells. On day 7, mice were injected with DCR-2-PBD, isotype-PBD or PBS and monitored for disease progression and survival. Mice were euthanised when their clinical score was ≥4 or on d70.
On day 7, mice received a single injection of either PBS, or 300 μg/kg of CMRF-81PBD or DCR-2PBD, and their survival monitored.

HEL = test: Cytotoxicity assay on HEL erythroleukemic cell line; assay type: cell-based
Protocol: as §1
DCR-2 and an isotype control mAb were conjugated to a PBD dimer toxin, to assess potential cytotoxicity. The cytotoxicity of DCR-2-PBD and the isotype-PBD were tested against CD300f+ and CD300f− cell lines and the results are shown in FIG. 6 and Table 2.

T cells = test: Mixed leucocyte reaction; assay type: cell-based, human; details: 200 pmol, 24 hours pre-incubation of stimulators, day 5
Protocol: DCR-2PBD's impact on antigen presentation was assessed by incubating DCR-2PBD or isotope-PBD with whole PBMC for 24 hours then washing, afterwards adding allogenic CFSE labeled T cells (naive CD4, magnetically separated) and measuring T cell division via reduction in CFSE expression. In more detail, T cells were depleted from PBMC by magnetic selection using an AutoMACS Pro with anti-CD3 mAb (HIT3a, Biolegend) with greater than 90% depletion in all samples. The CD3-depleted PBMC were incubated in complete RPMI media with DCR-2-PBD (200 pmol), isotype-PBD (200 pmol) or PBS for 24 hours. After washing to remove unbound ADC, the CD3-depleted PBMC were used to stimulate allogeneic CFSE labelled naive CD4+ T cells which had been prepared using a RosetteSep Kit (Stem Cell Technologies 17555). On day 5 the proliferation of T cells, identified using anti-CD3 AF700 (SP34-2), was assessed by CFSE reduction using flow cytometry. The results of the DCR-2-PBD and isotype-PBD groups were normalised to the PBS control group. […]
T cells were depleted from PBMC by magnetic selection using an AutoMACS Pro with anti-CD3 mAb (HIT3a, Biolegend) with greater than 90% depletion in all samples. […] On day 5 the proliferation of T cells, identified using anti-CD3 AF700 (SP34-2), was assessed by CFSE reduction using flow cytometry. […]

U937 cells = test: U937 subcutaneous xenograft model in NSG mice; assay type: in vivo, mouse; details: for tumour growth compared to isotype-PBD (300 ug/kg): intraperitoneal, once
Protocol: NOD.Cg-Prkdc^scld//2rg^tm1Wjl/SzJ (NSG) mice obtained from Australian BioResources were housed under specific pathogen free conditions. In the subcutaneous model, 2×10^6 U937 cells were injected under the skin on the right flank. Tumours were measured daily with electronic calipers. When the mean volume of the tumours was >100 mm^3, DCR-2-PBD, isotype-PBD or PBS was injected intraperitoneally once. […] Tumour volume was measured until >1000 mm^3 when mice were euthanised as required by the ethics protocol.
In the flank injection model 2×10^6 U937 cells were injected subcutaneously into NSG mice and the subsequent tumors were measured daily via caliper to calculate the volume. Mice were injected with 150 ug/kg of DCR-2ADC, Isotype-ADC or an equal volume of PBS on day 6. Mice were euthanized once the volumes reached 1000 mm^3. Survival and tumor size was recorded.
To determine the effect of DCR-2PBD in a mouse model based on U937 cells, mice were injected subcutaneously with cell line U937. After 6 days, mice were administered PBS, […] of CMRF-81PBD or […] of DCR-2PBD intraperitoneally and monitored for tumour growth. Tumour volume and survival of the mice were assessed and the results are shown in FIGS. 17 and 18, respectively.

[2] = tested on: human HSPC and myeloid cells; test: Humanised (CD34+ engrafted) NSG mouse model; assay type: in vivo; details: single dose 300 ug/kg, day 7
Protocol: The humanised mouse model used frozen CD34^+ cells (>95% purity) isolated by positive selection (Miltenyi 130-046-702) according to the manufacturer's instructions from two pooled CB samples. Each NSG mouse was injected with 100,000 CD34+ cells 4 hours after receiving a 150cGy irradiation dose. Engraftment as determined by % human CD45+ cells in venous blood was assessed at 12 weeks. Mice were assigned to treatment groups to have similar means of human CD45+ percentage in the PB (10.16% DCR-2-PBD cohort and 10.74% isotype-PBD cohort). Mice were then injected with 300 ug/kg of DCR-2-PBD or isotype-PBD. Mice were euthanised on day 7 and human CD45+ cells from BM (bilateral femurs and tibias) and 300 μl blood were enumerated and phenotyped by flow cytometry.

B1: DCR-2PBD: anti-CD300f mAb DCR-2 conjugated to pyrrolobenzodiazepine dimer via Cathepsin B-cleavable linker MA-PEG4-VA-PBD; drug to antibody ratio 3.3 (conjugate)
VH: MESGGGLVQPGGPLKLSCAASGFGFSGSWMSWVRQAPGKGLEWIGQINPDSSTINYTPSLKDKFIISRDNAKNTLYLQINKVRSEDTALYYCARRGFFEGYSAWFAYW
VL: ILMTQTPKFLLVSAGDRVTITCKASQSVSNDVAWYQQKPGQSPSLLIYYASNRNTGVPDRFTGSGYETDFTFTISTVQAEDLAVYFCQQDYTSPWTFGGG
Mino viability vs Mino only control ([1]; 25% HL-60/75% Mino, 25 pM, 96 hours (p=0.0002)): significant reduction in viability
Mino viability vs Mino only control ([1]; 50% HL-60/50% Mino, 12.5 pM, 96 hours (p=0.0004)): significant reduction in viability
Mino viability vs Mino only control ([1]; 50% HL-60/50% Mino, 25 pM, 96 hours (p<0.0001)): significant reduction in viability
human cells in mice surviving until day 70 (HL-60 cells; 300 ug/kg): No human cells could be detected
animals surviving to the experiment endpoint (HL-60 cells; 300 ug/kg, endpoint day 70): Six of 8
survival compared to isotype-PBD (HL-60 cells; single injection 300 ug/kg on day 7 (p=0.0058)): significantly increased survival
IC50 (HEL): 0.544 nM
T cell proliferation in mixed lymphocyte reaction (T cells): no impact; also recorded: does not reduce T cell proliferation
survival compared to isotype-PBD (300 ug/kg) (U937 cells; 150 ug/kg (p=0.0017)): significantly increased
tumour growth compared to isotype-PBD (300 ug/kg) (U937 cells; 150 ug/kg): delayed
survival compared to isotype-PBD (300 ug/kg) (U937 cells; 300 ug/kg (p=0.0017)): significantly increased
tumour growth compared to isotype-PBD (300 ug/kg) (U937 cells; 300 ug/kg): delayed
CD34+ cells as percentage of total human CD45+ cells [2]: 3.09%
CD34+CD38-CD90+ cells as percentage of total human CD45+ cells [2]: 0.16%
lymphocytes in the peripheral blood [2]: 208.5 cells/μl
mean CD34+CD38-CD90+ cell count in BM [2]: 0.05×10^4
myeloid cells in the peripheral blood [2]: 0.31 cells/μl
